Experimental data from patent US20110098217A1 (INDIANA UNIVERSITY RESEARCH AND TECHNOLOGY, published 2011).
Where “and” joins values, the source holds several entries; their conditions need not be identical. Equal entries are not always repeated. Bridge positions count the residues as written; N and C are the ends. Square brackets hold non-standard residues; d marks the D form. Primed or numbered codes have the meaning given here. Ends that are not written are not given here. MCA = alpha-methylhydrocinnamic acid (2-methyl-3-phenylpropanoic acid); PEG 20 kDa″ = 20 kDa polyethylene glycol (PEG); Abu(4-SO3H) = N[C@@H](CCS(=O)(=O)O)C(=O)O; PEG 20 kDa = 20 kDa polyethylene glycol; PhLac = O=C(O)[C@@H](O)Cc1ccccc1

B1: [PLA6, E16, GLP(23-32)]G(6-29) (peptide)
peptide: [PhLac]TSDYSKYLDEQAAKEFIAWLMNT-NH2
modifications: N-terminus assumed
SMILES: CC[C@H](C)[C@H](NC(=O)[C@H](Cc1ccccc1)NC(=O)[C@H](CCC(=O)O)NC(=O)[C@H](CCCCN)NC(=O)[C@H](C)NC(=O)[C@H](C)NC(=O)[C@H](CCC(N)=O)NC(=O)[C@H](CCC(=O)O)NC(=O)[C@H](CC(=O)O)NC(=O)[C@H](CC(C)C)NC(=O)[C@H](Cc1ccc(O)cc1)NC(=O)[C@H](CCCCN)NC(=O)[C@H](CO)NC(=O)[C@H](Cc1ccc(O)cc1)NC(=O)[C@H](CC(=O)O)NC(=O)[C@H](CO)NC(=O)[C@@H](NC(=O)[C@@H](O)Cc1ccccc1)[C@@H](C)O)C(=O)N[C@@H](C)C(=O)N[C@@H](Cc1c[nH]c2ccccc12)C(=O)N[C@@H](CC(C)C)C(=O)N[C@@H](CCSC)C(=O)N[C@@H](CC(N)=O)C(=O)N[C@H](C(N)=O)[C@@H](C)O
B2: [PLA6, K12E16(lactam), GLP(23-32)]G(6-29) (peptide)
peptide: [PhLac]TSDYSKYLDEQAAKDFIAWLMDT-NH2
modifications: lactam 7-11; N-terminus assumed
SMILES: CC[C@H](C)[C@H](NC(=O)[C@H](Cc1ccccc1)NC(=O)[C@H](CC(=O)O)NC(=O)[C@H](CCCCN)NC(=O)[C@H](C)NC(=O)[C@H](C)NC(=O)[C@H](CCC(N)=O)NC(=O)[C@@H]1CCC(=O)NCCCC[C@H](NC(=O)[C@H](CO)NC(=O)[C@H](Cc2ccc(O)cc2)NC(=O)[C@H](CC(=O)O)NC(=O)[C@H](CO)NC(=O)[C@@H](NC(=O)[C@@H](O)Cc2ccccc2)[C@@H](C)O)C(=O)N[C@@H](Cc2ccc(O)cc2)C(=O)N[C@@H](CC(C)C)C(=O)N[C@@H](CC(=O)O)C(=O)N1)C(=O)N[C@@H](C)C(=O)N[C@@H](Cc1c[nH]c2ccccc12)C(=O)N[C@@H](CC(C)C)C(=O)N[C@@H](CCSC)C(=O)N[C@@H](CC(=O)O)C(=O)N[C@H](C(N)=O)[C@@H](C)O
B3: [PLA6, E16K20(lactam), GLP(23-32)]G(6-29) (peptide)
peptide: [PhLac]TSDYSKYLDEQAAKEFIAWLMDT-NH2
modifications: lactam 11-15; N-terminus assumed
SMILES: CC[C@H](C)[C@H](NC(=O)[C@H](Cc1ccccc1)NC(=O)[C@H](CCC(=O)O)NC(=O)[C@@H]1CCCCNC(=O)CC[C@H](NC(=O)[C@H](CC(=O)O)NC(=O)[C@H](CC(C)C)NC(=O)[C@H](Cc2ccc(O)cc2)NC(=O)[C@H](CCCCN)NC(=O)[C@H](CO)NC(=O)[C@H](Cc2ccc(O)cc2)NC(=O)[C@H](CC(=O)O)NC(=O)[C@H](CO)NC(=O)[C@@H](NC(=O)[C@@H](O)Cc2ccccc2)[C@@H](C)O)C(=O)N[C@@H](CCC(N)=O)C(=O)N[C@@H](C)C(=O)N[C@@H](C)C(=O)N1)C(=O)N[C@@H](C)C(=O)N[C@@H](Cc1c[nH]c2ccccc12)C(=O)N[C@@H](CC(C)C)C(=O)N[C@@H](CCSC)C(=O)N[C@@H](CC(=O)O)C(=O)N[C@H](C(N)=O)[C@@H](C)O
B4: [desHis^1, Leu^4, hCys^9(SO3-), Phe^25, Leu^27] Glucagon-NH2 (peptide)
peptide: SQLTFTS[Abu(4-SO3H)]YSKYLDSRRAQDFVQFLLNT-NH2
modifications: N-terminus assumed
SMILES: CC(C)C[C@H](NC(=O)[C@H](Cc1ccc(O)cc1)NC(=O)[C@H](CCCCN)NC(=O)[C@H](CO)NC(=O)[C@H](Cc1ccc(O)cc1)NC(=O)[C@H](CCS(=O)(=O)O)NC(=O)[C@H](CO)NC(=O)[C@@H](NC(=O)[C@H](Cc1ccccc1)NC(=O)[C@@H](NC(=O)[C@H](CC(C)C)NC(=O)[C@H](CCC(N)=O)NC(=O)[C@@H](N)CO)[C@@H](C)O)[C@@H](C)O)C(=O)N[C@@H](CC(=O)O)C(=O)N[C@@H](CO)C(=O)N[C@@H](CCCNC(=N)N)C(=O)N[C@@H](CCCNC(=N)N)C(=O)N[C@@H](C)C(=O)N[C@@H](CCC(N)=O)C(=O)N[C@@H](CC(=O)O)C(=O)N[C@@H](Cc1ccccc1)C(=O)N[C@H](C(=O)N[C@@H](CCC(N)=O)C(=O)N[C@@H](Cc1ccccc1)C(=O)N[C@@H](CC(C)C)C(=O)N[C@@H](CC(C)C)C(=O)N[C@@H](CC(N)=O)C(=O)N[C@H](C(N)=O)[C@@H](C)O)C(C)C

Target: T1, human glucagon receptor (human, UniProt P47871 26-477)
T1 sequence (P47871 26-477): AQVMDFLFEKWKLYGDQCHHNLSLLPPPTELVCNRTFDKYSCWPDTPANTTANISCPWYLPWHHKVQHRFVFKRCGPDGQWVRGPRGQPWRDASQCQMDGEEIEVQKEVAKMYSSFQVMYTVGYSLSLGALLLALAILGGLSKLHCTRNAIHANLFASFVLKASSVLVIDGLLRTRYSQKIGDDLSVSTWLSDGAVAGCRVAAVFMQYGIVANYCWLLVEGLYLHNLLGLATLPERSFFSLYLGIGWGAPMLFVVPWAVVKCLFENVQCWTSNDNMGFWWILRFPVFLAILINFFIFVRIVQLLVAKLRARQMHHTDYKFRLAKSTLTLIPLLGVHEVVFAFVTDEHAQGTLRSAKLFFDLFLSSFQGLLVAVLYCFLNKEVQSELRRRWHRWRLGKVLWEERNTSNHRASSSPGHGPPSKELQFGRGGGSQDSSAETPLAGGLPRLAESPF
Assay: cell-based or functional assay

Row | Binder | Glucagon antagonism IC50 (inhibit 0.2-0.8 nM glucagon)
1 | B1 | 64.5 nM
2 | B2 | 169 nM

Target: T2, human GLP-1 receptor (human, UniProt P43220 24-463)
Assay: cell-based or functional assay

Row | Binder | GLP-1 agonism EC50
3 | B3 | 51.2 nM
4 | B1 | 85.6 nM

Target: T2, human GLP-1 receptor
Assay: cell-based or functional assay
Remark: another data set of the same source

Row | Binder | GLP-1 agonism EC50
5 | [PhLac]TSDYSKYLDERRAQDFVQWLMDTGPSSGAPPPSC(PEG 20 kDa)-NH2 (lactam 7-11) [[PLA6, K12E16(Lactam), D28,CEX-C40(20 kDa)]G(6-40)] | 657 nM
6 | [PhLac]TSEYSKYLDERRAKDFVC(PEG 20 kDa″)WLMNT-NH2 (lactam 11-15) [[PLA6, E9,E16K20(Lactam), C24(20 kDa)]G(6-29)] | 825 nM

Target: T1, human glucagon receptor
Assay: cell-based or functional assay
Remark: another data set of the same source

Row | Binder | IC50 (cAMP, inhibit 0.2 mM Glucagon)
7 | C(PEG 5 kDa)FTSEYSKYLDSRRAQDFVQWLMNT-NH2 [[C^5(5kDaPEG), E^9]Glucagon(aa5-29)-NH2] | 1610 nM
8 | [PhLac]TC(PEG 5 kDa)EYSKYLDSRRAQDFVQWLMNT-NH2 [[PLA^6, C^8(5kDaPEG), E^9]Glucagon(aa6-29)-NH2] | 216 nM
9 | [PhLac]TC(PEG 20 kDa)EYSKYLDSRRAQDFVQWLMNT-NH2 [[PLA^6, C^8(20kDaPEG), E^9]Glucagon(aa6-29)-NH2] | 236 nM and 92 nM
10 | [PhLac]TSEYSKYLDSRRAQDFVC(PEG 20 kDa)WLMNT-NH2 [[PLA^6, E^9, C^24(20kDaPEG)]Glucagon(aa6-29)-NH2] | 126 nM
11 | [PhLac]TSEYSKYLDSRRAQDFVC(PEG 1.2 kDa)WLMNT-NH2 [[PLA^6, E^9,C^24(1.2 kDaPEG)]Glucagon(aa6-29)-NH2] | 18 nM
12 | [PhLac]TSEYC(PEG 20 kDa)KYLDSRRAQDFVQWLMNT-NH2 [[PLA^6, E^9, C^11(20kDaPEG)]Glucagon(aa6-29)-NH2] | 664 nM
13 | C(PEG 20 kDa)FTSEYSKYLDSRRAQDFVQWLMNT-NH2 [[C^5(20kDaPEG), E^9]Glucagon(aa5-29)-NH2] | 976 nM
14 | C(PEG 3.4 kDa)FTSEYSKYLDSRRAQDFVQWLMNT-NH2 (also: dimer: Cys5 of two chains joined by 3.4 kDa PEG) [3.4kDaPEG-dimer[C^5, E^9]Glucagon(aa5-29)-NH2] | 1340 nM
15 | C(PEG 1.2 kDa)FTSEYSKYLDSRRAQDFVQWLMNT-NH2 [[C^5(1.2kDaPEG), E^9]Glucagon(aa5-29)-NH2] | 2280 nM

Target: T1, human glucagon receptor
Assay: cell-based or functional assay
Remark: another data set of the same source

Row | Binder | cAMP Induction EC50 | cAMP Inhibition IC50
16 | B4 | 1610 nM | 4460 nM

Target: T1, human glucagon receptor
Assay: SPA competition vs 125I-glucagon, receptor membranes

Row | Binder | IC50
17 | C(PEG 5 kDa)FTSEYSKYLDSRRAQDFVQWLMNT-NH2 [[C^5(5kDaPEG), E^9]Glucagon(aa5-29)-NH2] | 634 nM
18 | [PhLac]TC(PEG 5 kDa)EYSKYLDSRRAQDFVQWLMNT-NH2 [[PLA^6, C^8(5kDaPEG), E^9]Glucagon(aa6-29)-NH2] | 948 nM
19 | [PhLac]TC(PEG 20 kDa)EYSKYLDSRRAQDFVQWLMNT-NH2 [[PLA^6, C^8(20kDaPEG), E^9]Glucagon(aa6-29)-NH2] | 303 nM
20 | [MCA]TSEYSKYLDSRRAQDFVC(PEG 20 kDa)WLMNT-NH2 [[MCA^6, E^9, C^24(20kDaPEG)]Glucagon(aa6-29)-NH2] | 208 nM
21 | [PhLac]TSEYSKYLDSRRAQDFVC(PEG 20 kDa)WLMNT-NH2 [[PLA^6, E^9, C^24(20kDaPEG)]Glucagon(aa6-29)-NH2] | 90 nM
22 | [PhLac]TSEYSKYLDSRRAQDFVC(PEG 1.2 kDa)WLMNT-NH2 [[PLA^6, E^9,C^24(1.2 kDaPEG)]Glucagon(aa6-29)-NH2] | 4.7 nM
23 | [PhLac]TSEYC(PEG 20 kDa)KYLDSRRAQDFVQWLMNT-NH2 [[PLA^6, E^9, C^11(20kDaPEG)]Glucagon(aa6-29)-NH2] | 776 nM
24 | C(PEG 20 kDa)FTSEYSKYLDSRRAQDFVQWLMNT-NH2 [[C^5(20kDaPEG), E^9]Glucagon(aa5-29)-NH2] | 331 nM
25 | [PhLac]TC(PEG 1.2 kDa)EYSKYLDSRRAQDFVQWLMNT-NH2 [[PLA^6, C^8(1.2kDaPEG), E^9]Glucagon(aa6-29)-NH2] | 220 nM
26 | C(PEG 3.4 kDa)FTSEYSKYLDSRRAQDFVQWLMNT-NH2 (also: dimer: Cys5 of two chains joined by 3.4 kDa PEG) [3.4kDaPEG-dimer[C^5, E^9]Glucagon(aa5-29)-NH2] | 435 nM
27 | C(PEG 1.2 kDa)FTSEYSKYLDSRRAQDFVQWLMNT-NH2 [[C^5(1.2kDaPEG), E^9]Glucagon(aa5-29)-NH2] | 1080 nM
